What was measured:
[1] = target: extracellular region of human R131 FcγRIIa, GST-tagged (human) (UniProt P12318); experiment: AlphaScreen competition: the antibody displaces biotinylated WT antibody (donor beads) from GST-tagged human R131 FcγRIIa (acceptor beads)
[2] = target: extracellular region of human V158 FcγRIIIa fused with glutathione S-transferase (GST) (human) (UniProt P08637); experiment: AlphaScreen competition as in Example 2 (biotinylated WT antibody on donor beads, GST-tagged human V158 FcγRIIIa on acceptor beads); Fc variants in the context of trastuzumab
His-tagged V158 FcγRIIIa = His-tagged V158 FcγRIIIa (UniProt P08637); experiment: SPR, receptor immobilized
[3] = target: F158 FcγRIIIa as used in SPR (UniProt P08637); experiment: SPR
[4] = target: extracellular region of human V158 FcγRIIIa fused with glutathione S-transferase (GST) (human) (UniProt P08637); experiment: AlphaScreen competition
bacterial protein A = bacterial protein A (UniProt P38507); experiment: AlphaScreen competition: the antibody displaces biotinylated WT alemtuzumab (donor beads) from protein A coupled directly to acceptor beads
[5] = target: FcγRIIIa on human PBMCs, heterozygous V158/F158 (human) (UniProt P08637); experiment: cell-based or functional assay

IC50 (read off the curve) [1] | Kd (His-tagged V158 FcγRIIIa) | Kd [3] | Substance | other results
7 nM | – | – | S239D/A330L/I332E (antibody) | –
3 nM | – | – | S239D/A330Y/I332E (antibody) | –
4 nM | – | – | S239D/S298A/I332E (antibody) | –
6 nM | – | – | S239N/A330Y/I332E (antibody) | –
– | – | – | S239N/I332E (antibody) | IC50 (read off the curve) [2]: 0.7 nM
– | 68 nM | 730 nM | WT alemtuzumab (Campath), IgG1, expressed in 293T cells (antibody) | –
– | – | – | alemtuzumab Fc variant 192 (V264E/N297D/I332E by Table 60; printed V264I/N297D/I332E in Table 61) (antibody) | FcγRIIIa Fold [4]: 0.05 fold vs WT
– | 31 nM | 72 nM | alemtuzumab I332E (antibody) | IC50 (read off the curve) (bacterial protein A): 1e-09 2M
3 nM | – | – | alemtuzumab S239D/I332E (antibody) | ADCC EC50 [5]: 3 ng/mL; ADCC log(EC50) [5]: 0.49 log(ng/ml)
– | 52 nM | 285 nM | alemtuzumab S298A (antibody) | –
– | 39 nM | 156 nM | alemtuzumab S298A/E333A/K334A (antibody) | –
– | 64 nM | 550 nM | alemtuzumab V264I (antibody) | IC50 (read off the curve) (bacterial protein A): 1e-09 2M
– | 17 nM | 52 nM | alemtuzumab V264I/I332E (antibody) | ADCC EC50 [5]: 4 ng/mL; ADCC log(EC50) [5]: 0.6 log(ng/ml)

— US20140370021A1
